Data taken from patent US20250388669A1 (published 2025).

Key:
[1] = molecular target: T1, B7H3 (UniProt Q5ZPR3 29-466, limits assumed); assay: FCM or ELISA (graded summary table)
T1 sequence (looked up): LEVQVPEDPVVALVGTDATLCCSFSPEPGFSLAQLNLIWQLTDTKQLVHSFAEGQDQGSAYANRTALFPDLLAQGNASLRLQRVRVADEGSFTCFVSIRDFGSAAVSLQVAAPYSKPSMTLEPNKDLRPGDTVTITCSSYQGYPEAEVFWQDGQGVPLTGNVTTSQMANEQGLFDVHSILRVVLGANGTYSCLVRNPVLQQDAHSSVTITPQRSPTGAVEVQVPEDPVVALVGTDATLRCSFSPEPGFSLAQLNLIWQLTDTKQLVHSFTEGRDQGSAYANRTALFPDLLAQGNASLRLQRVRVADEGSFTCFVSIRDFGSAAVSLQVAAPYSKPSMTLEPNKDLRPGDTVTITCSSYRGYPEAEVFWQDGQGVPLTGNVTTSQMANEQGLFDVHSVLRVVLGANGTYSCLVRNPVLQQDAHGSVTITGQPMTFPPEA

[2] = molecular target: T2, CD137 (UniProt Q07011 24-186, limits assumed); assay: FCM or ELISA (graded summary table)
T2 construct: also called 4-1BB

B1: Ly1963 (other)
chain 1: QVQLVQSGAEVKKPGASVKVSCKASGYTFTSYVMHWVRQKPGQGLEWIGYINPYNEGTESTDKFKGRATMTSDKSTSTVYMELSSLRSEDTAVYYCASIYYGYEGTYFGVWGQGTLVTVSSASTKGPSVFPLAPSSKSTSGGTAALGCLVKDYFPEPVTVSWNSGALTSGVHTFPAVLQSSGLYSLSSVVTVPSSSLGTQTYICNVNHKPSNTKVDKKVEPKSCGGGGSGGGGSGGGGSGGGGSEVQLVESGGGLVQPGGSLRLSCAASGFTFSTYAMNWVRQAPGKGLEWVGRIRSKYNNYATYYADSVKGRFTISRDDSKNSLYLQMNSLKTEDTAVYYCVRHGNFGNSYVSWFAYWGQGTLVTVSSGGGGSDKTHTCPPCPAPEAAGPSVFLFPPKPKDTLMISRTPEVTCVVVDVSHEDPEVKFNWYVDGVEVHNAKTKPREEQYNSTYRVVSVLTVLHQDWLNGKEYKCKVSNKALPAPIEKTISKAKGQPREPQVYTLPPSREEMTKNQVSLWCLVKGFYPSDIAVEWESNGQPENNYKTTPPVLDSDGSFFLYSKLTVDKSRWQQGNVFSCSVMHEALHNHYTQKSLSLSPGGGGGSGGGGSGGGGSGGGGSQVQLVQSGAEVKKPGASVKVSCKASGYTFAGFEMHWVRQAPGQGLEWMGAIDPKTGGTDYNQKFKDRVTMTRDTSISTAYMELSRLRSDDTAVYYCARDLGYFDVWGQGTLVTVSS
chain 2: QVQLVQSGAEVKKPGASVKVSCKASGYTFTSYVMHWVRQKPGQGLEWIGYINPYNEGTESTDKFKGRATMTSDKSTSTVYMELSSLRSEDTAVYYCASIYYGYEGTYFGVWGQGTLVTVSSASTKGPSVFPLAPSSKSTSGGTAALGCLVKDYFPEPVTVSWNSGALTSGVHTFPAVLQSSGLYSLSSVVTVPSSSLGTQTYICNVNHKPSNTKVDKKVEPKSCGGGGSGGGGSGGGGSGGGGSQAVVTQEPSLTVSPGGTVTLTCRSSTGAVTTSNYANWVQQKPGQAPRGLIGGTNKRAPWTPARFSGSLLGGKAALTITGAQAEDEADYYCALWYSNLWVFGGGTKLTVLGGGGSDKTHTCPPCPAPEAAGPSVFLFPPKPKDTLMISRTPEVTCVVVDVSHEDPEVKFNWYVDGVEVHNAKTKPREEQYNSTYRVVSVLTVLHQDWLNGKEYKCKVSNKALPAPIEKTISKAKGQPREPQVYTLPPSREEMTKNQVSLSCAVKGFYPSDIAVEWESNGQPENNYKTTPPVLDSDGSFFLVSKLTVDKSRWQQGNVFSCSVMHEALHNHYTQKSLSLSPGGGGGSGGGGSGGGGSGGGGSDIQMTQSPSSLSASVGDRVTITCRASQDIRSNLNWYQQKPGGAVKLLIYYTSRLHSGVPSRFSGSGSGTDYTLTISSLQPEDFATYFCQQSEKLPRTFGGGTKVEIR
light: EIVLTQSPATLSLSPGERATLSCRASSSVSYMHWYQQKPGQAPRPWIYATSNLASGIPARFSGSRSGTDYTLTISSLEPEDFAVYYCQQWSSNTLTFGGGTKVEIKRTVAAPSVFIFPPSDEQLKSGTASVVCLLNNFYPREAKVQWKVDNALQSGNSQESVTEQDSKDSTYSLSSTLTLSKADYEKHKVYACEVTHQGLSSPVTKSFNRGEC
notes: Tri-specific antibody B7H3 (two Fabs) / CD3 (central Fv) / CD137 (terminal Fv)
binding result [1]: binds | binding result [2]: binds
